Results as given in patent US20220306719A1 (JULIUS MAXIMILIANS UNIVERSIT T W RZBURG, published 2022).
Where “and” joins values, the source holds several entries; their conditions need not be identical. Equal values may be shown once.

Key:
Assay in all cases: cell-based or functional assay
[1] = molecular target: CD19_IgG3_MiH3 CAR (FMC63 scFv, IgG3_MiH3 spacer, CD28tm, 4-1BB/CD3zeta) (human)
[2] = molecular target: CD19_IgG3_MiH5 CAR (FMC63 scFv, IgG3_MiH5 spacer, CD28tm, 4-1BB/CD3zeta) (human)
[3] = molecular target: CD19_IgG3_MiH4 CAR (FMC63 scFv, IgG3_MiH4 spacer, CD28tm, 4-1BB/CD3zeta) (human)
[4] = molecular target: CD19_IgG3_MiH1 CAR (FMC63 scFv, IgG3_MiH1 spacer, CD28tm, 4-1BB/CD3zeta)
[5] = molecular target: CD20_IgG3_MiH5/MiH3 CAR (advanced IgG3 format, Leu16 scFv)
[6] = molecular target: CD19_IgG3_MiH5/MiH1 CAR (advanced IgG3 format: FMC63 scFv with MiH5 linker between the variable domains, MiH1 …)
[7] = molecular target: R11_IgG3_MiH5/MiH3 CAR (advanced IgG3 format, ROR1-specific R11 scFv)
[8] = molecular target: R11_IgG3_MiH3 CAR (ROR1-specific R11 scFv, IgG3_MiH3 spacer)
Sequence of R11_IgG3_MiH3 CAR (ROR1-specific R11 scFv, IgG3_MiH3 spacer) (chain, as listed by the source): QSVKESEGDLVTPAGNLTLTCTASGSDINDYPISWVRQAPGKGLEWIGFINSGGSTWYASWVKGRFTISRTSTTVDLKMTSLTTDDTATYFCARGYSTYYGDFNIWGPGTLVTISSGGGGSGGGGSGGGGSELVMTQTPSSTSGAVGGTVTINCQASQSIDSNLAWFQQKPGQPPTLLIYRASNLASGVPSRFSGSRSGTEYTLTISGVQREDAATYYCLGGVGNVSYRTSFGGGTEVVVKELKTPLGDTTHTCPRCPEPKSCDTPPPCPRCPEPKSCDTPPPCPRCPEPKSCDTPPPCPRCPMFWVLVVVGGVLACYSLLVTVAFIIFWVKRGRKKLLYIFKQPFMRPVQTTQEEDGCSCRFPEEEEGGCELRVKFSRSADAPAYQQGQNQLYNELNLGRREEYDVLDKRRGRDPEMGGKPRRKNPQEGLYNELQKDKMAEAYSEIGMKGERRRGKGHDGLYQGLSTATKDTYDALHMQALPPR

Sequence of CD19_IgG3_MiH5 CAR (FMC63 scFv, IgG3_MiH5 spacer, CD28tm, 4-1BB/CD3zeta) (human) (chain, as listed by the source): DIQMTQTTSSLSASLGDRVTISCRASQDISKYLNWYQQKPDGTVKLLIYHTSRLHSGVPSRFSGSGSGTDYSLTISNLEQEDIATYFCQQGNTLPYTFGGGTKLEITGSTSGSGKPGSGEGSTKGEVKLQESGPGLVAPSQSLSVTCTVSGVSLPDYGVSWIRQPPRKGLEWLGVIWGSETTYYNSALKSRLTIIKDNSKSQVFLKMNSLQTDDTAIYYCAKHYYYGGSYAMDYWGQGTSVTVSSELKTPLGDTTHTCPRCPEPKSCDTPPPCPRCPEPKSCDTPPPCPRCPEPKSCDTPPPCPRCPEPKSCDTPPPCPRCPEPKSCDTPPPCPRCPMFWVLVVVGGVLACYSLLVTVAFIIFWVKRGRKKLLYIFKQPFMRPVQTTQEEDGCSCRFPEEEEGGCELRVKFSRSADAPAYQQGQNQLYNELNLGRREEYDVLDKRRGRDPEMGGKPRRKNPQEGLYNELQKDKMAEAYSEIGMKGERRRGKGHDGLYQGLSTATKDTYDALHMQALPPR
Sequence of CD20_IgG3_MiH5/MiH3 CAR (advanced IgG3 format, Leu16 scFv) (chain, as listed by the source): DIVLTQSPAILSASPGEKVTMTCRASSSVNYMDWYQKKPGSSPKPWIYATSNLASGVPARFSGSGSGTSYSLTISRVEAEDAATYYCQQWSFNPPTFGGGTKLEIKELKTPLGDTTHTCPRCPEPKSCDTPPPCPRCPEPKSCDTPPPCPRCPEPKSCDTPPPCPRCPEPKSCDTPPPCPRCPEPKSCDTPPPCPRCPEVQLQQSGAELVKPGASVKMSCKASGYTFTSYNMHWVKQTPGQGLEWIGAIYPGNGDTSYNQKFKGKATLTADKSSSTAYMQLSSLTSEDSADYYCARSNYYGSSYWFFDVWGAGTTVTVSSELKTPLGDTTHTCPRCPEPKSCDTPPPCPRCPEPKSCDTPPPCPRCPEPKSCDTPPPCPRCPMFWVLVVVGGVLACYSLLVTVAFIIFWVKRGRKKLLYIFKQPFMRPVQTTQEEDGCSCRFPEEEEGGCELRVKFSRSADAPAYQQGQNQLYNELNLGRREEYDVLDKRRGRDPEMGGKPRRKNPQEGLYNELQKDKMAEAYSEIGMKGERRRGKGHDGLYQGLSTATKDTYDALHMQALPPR
Sequence of CD19_IgG3_MiH4 CAR (FMC63 scFv, IgG3_MiH4 spacer, CD28tm, 4-1BB/CD3zeta) (human) (chain, as listed by the source): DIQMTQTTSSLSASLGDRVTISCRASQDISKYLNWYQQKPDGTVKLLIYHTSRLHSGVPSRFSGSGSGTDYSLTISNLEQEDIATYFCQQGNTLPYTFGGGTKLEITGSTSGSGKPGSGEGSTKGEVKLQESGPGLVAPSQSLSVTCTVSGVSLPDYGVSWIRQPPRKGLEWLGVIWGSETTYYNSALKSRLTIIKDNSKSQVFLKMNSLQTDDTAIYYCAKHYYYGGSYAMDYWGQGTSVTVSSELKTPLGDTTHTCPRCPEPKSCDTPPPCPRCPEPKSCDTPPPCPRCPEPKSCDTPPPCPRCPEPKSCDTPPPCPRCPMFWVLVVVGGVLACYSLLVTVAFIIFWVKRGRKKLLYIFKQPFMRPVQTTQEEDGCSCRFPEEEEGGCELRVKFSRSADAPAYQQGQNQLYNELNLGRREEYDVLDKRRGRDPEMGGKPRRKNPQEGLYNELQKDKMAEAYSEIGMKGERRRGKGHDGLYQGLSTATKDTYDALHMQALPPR
Sequence of CD19_IgG3_MiH3 CAR (FMC63 scFv, IgG3_MiH3 spacer, CD28tm, 4-1BB/CD3zeta) (human) (chain, as listed by the source): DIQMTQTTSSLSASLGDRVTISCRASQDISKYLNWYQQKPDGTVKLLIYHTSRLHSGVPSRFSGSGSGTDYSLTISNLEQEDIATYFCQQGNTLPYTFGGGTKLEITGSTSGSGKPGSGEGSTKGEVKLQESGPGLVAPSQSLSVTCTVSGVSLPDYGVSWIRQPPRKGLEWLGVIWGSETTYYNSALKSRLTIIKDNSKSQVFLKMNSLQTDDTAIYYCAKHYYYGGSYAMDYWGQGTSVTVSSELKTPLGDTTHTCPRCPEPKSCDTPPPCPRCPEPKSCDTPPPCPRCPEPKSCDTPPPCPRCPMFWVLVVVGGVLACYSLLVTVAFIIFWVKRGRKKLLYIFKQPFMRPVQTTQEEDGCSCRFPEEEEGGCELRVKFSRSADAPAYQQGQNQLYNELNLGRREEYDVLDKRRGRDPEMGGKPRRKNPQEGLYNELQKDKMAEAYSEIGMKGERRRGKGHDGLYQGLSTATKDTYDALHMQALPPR
Sequence of R11_IgG3_MiH5/MiH3 CAR (advanced IgG3 format, ROR1-specific R11 scFv) (chain, as listed by the source): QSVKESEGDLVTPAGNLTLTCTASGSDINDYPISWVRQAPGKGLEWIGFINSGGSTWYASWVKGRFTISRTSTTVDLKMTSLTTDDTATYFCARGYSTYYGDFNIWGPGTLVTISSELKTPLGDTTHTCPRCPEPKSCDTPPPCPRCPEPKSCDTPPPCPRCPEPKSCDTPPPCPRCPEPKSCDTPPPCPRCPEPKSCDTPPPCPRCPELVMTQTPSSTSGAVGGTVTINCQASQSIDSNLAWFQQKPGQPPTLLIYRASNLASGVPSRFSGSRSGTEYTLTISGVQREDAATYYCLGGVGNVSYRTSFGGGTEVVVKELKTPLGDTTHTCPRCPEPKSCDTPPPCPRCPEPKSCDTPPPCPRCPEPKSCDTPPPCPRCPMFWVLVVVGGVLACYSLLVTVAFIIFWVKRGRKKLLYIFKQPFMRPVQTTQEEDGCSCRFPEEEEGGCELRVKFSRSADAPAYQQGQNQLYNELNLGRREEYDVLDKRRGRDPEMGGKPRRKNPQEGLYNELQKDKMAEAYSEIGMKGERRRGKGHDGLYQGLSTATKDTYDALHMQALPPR
Sequence of CD19_IgG3_MiH1 CAR (FMC63 scFv, IgG3_MiH1 spacer, CD28tm, 4-1BB/CD3zeta) (chain, as listed by the source): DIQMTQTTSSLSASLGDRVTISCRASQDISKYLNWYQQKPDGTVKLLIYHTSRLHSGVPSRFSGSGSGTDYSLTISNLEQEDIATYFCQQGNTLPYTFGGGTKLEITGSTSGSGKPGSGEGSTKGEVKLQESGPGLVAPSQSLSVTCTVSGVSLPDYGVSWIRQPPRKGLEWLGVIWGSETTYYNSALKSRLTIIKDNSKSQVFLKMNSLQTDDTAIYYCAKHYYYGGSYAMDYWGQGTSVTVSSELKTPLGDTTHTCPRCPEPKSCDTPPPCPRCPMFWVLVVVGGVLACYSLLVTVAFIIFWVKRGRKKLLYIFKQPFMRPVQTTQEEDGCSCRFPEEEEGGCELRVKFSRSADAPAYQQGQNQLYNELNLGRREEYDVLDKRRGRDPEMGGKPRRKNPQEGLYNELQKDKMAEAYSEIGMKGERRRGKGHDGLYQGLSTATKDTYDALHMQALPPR
Sequence of CD19_IgG3_MiH5/MiH1 CAR (advanced IgG3 format: FMC63 scFv with MiH5 linker between the variable domains, MiH1 …) (chain, as listed by the source): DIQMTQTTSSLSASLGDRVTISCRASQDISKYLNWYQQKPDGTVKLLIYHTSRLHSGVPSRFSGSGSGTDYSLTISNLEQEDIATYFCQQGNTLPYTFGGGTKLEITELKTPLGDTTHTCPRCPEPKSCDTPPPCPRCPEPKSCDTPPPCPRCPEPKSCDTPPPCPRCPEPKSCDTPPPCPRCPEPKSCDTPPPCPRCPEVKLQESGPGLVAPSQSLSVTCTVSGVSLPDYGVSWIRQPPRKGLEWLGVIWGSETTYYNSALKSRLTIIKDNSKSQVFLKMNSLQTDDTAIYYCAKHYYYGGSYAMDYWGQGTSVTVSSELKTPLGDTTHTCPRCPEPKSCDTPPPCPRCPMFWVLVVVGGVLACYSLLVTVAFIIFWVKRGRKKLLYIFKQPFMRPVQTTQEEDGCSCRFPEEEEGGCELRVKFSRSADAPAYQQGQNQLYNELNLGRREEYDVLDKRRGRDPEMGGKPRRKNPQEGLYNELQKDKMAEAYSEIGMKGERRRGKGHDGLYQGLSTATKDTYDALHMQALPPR

Binder | increase in CAR T cell numbers after 7 days of stimulation on plate-bound antibody [1] | expansion of CAR T cells after one week on plate-bound antibody [2] | expansion of CAR T cells after one week on plate-bound antibody [3] | ADC concentration with the told effect on viable CAR T cells (72 h) [1] | ADC concentration with the told effect on viable CAR T cells (72 h) [4] | ADC concentration with the told effect on viable CAR T cells (72 h) [5] | ADC concentration with the told effect on viable CAR T cells (72 h) [2] | ADC concentration with the told effect on viable CAR T cells (72 h) [6] | ADC concentration with the told effect on viable CAR T cells (72 h) [3] | ADC concentration with the told effect on viable CAR T cells (72 h) [7] | ADC concentration with the told effect on viable CAR T cells (72 h) [8]
anti-MiH antibody #1 (antibody, V domains shown) VH: QVQLLESGPGLVAPSQTLSITCTVSGFSFTNYDLHWVRQPPGKGLEWLGVIWAVGSTNYNSALMSRLSISKDNSKSQVFLKMNSLQTDDTAIYYCAREEDYRYGMDYWGQGTSVTVSS VL: ELVMTQSPLSLPVSLGDQASISCRSSQSLVHSNGNTYLHWYLQKPGQSPKLLIYKVSNRFSGVPDRFSGSGSGTDFTLKISRVEAEDLGVYFCSQSTHVPYTFGGGTKLEIK | > 2 fold | 4 fold | 4 fold |  |  |  |  |  |  |  | 
anti-MiH antibody #1-ADC (anti-MiH antibody #1 conjugated to an anthracycline-based cytotoxic payload) (antibody, V domains shown, conjugated to an anthracycline-based cytotoxic payload (chain and site not stated)) VH: QVQLLESGPGLVAPSQTLSITCTVSGFSFTNYDLHWVRQPPGKGLEWLGVIWAVGSTNYNSALMSRLSISKDNSKSQVFLKMNSLQTDDTAIYYCAREEDYRYGMDYWGQGTSVTVSS VL: ELVMTQSPLSLPVSLGDQASISCRSSQSLVHSNGNTYLHWYLQKPGQSPKLLIYKVSNRFSGVPDRFSGSGSGTDFTLKISRVEAEDLGVYFCSQSTHVPYTFGGGTKLEIK |  |  |  | 5 µg/mL | 10 µg/mL | 500 ng/mL and 5000 ng/mL | 50 ng/mL and 5000 ng/mL | 5 µg/mL | 5 µg/mL | 500 ng/mL and 5000 ng/mL | 500 ng/mL and 5000 ng/mL
